According to patent US20240327505A1 (published 2024):

Target: SARS-CoV-2 spike receptor-binding domain (RBD) protein (SARS-CoV-2, UniProt P0DTC2 319-541)
Assay: BLI

B1: AB-009620 (antibody, V domains shown)
VH: QITLKESGPTLVKPTQTLTLTCTFSGFSLSTSGVGVGWIRQPPGKALEWLALIYWDDDKRYSPSLKSRLTITKDTSKNQVVLTMTNMDPVDTATYYCAHHEVATVFDYWGQGTLVTVSS
VL: QSALTQPASVSGSPGQSITISCTGTSSDVGAYNYVSWYQQHPGKAPKLMIYEVSNRPSGVSNRFSGSKSGNTASLTISGLQAEDEADYYCSSYTSSSTVFGGGTKLTVL
  Kd: 5.99 nM
